One may read the Kd as the equilibrium constant for the complex coming apart. Lower therefore signals tighter binding.

The experiment concerns the target chicken transferrin receptor, endogenous on chicken embryo fibroblasts (chicken (endogenous in CEF), UniProt Q90997 1-776). Kind of experiment: radioligand binding.

chicken transferrin receptor, endogenous on chicken embryo fibroblasts, sequence (Q90997 whole entry): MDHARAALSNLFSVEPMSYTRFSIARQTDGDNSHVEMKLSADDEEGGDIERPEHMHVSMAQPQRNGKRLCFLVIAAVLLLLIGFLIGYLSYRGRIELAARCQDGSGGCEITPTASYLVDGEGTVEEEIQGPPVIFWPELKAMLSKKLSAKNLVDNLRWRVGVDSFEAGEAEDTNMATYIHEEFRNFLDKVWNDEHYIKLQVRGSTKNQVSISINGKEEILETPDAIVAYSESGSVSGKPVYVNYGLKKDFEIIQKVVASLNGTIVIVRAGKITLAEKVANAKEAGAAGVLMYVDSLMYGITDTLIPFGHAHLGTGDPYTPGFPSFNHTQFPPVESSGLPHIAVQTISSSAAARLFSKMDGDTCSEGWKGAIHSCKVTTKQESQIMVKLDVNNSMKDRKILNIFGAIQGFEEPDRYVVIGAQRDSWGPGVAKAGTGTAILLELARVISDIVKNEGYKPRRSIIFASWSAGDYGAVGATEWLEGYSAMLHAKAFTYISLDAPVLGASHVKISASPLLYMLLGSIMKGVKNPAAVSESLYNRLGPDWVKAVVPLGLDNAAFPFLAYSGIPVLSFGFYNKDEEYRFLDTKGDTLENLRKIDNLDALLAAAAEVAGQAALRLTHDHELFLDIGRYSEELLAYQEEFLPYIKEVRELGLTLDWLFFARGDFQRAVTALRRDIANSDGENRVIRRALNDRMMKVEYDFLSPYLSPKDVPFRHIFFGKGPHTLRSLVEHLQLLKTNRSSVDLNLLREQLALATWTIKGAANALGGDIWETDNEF

B1: ovotransferrin (ligand)
chain: APPKSVIRWCTISSPEEKKCNNLRDLTQQERISLTCVQKATYLDCIKAIANNEADAISLDGGQAFEAGLAPYKLKPIAAEVYEHTEGSTTSYYAVAVVKKGTEFTVNDLQGKTSCHTGLGRSAGWNIPIGTLLHRGAIEWEGIESGSVEQAVAKFFSASCVPGATIEQKLCRQCKGDPKTKCARNAPYSGYSGAFHCLKDGKGDVAFVKHTTVNENAPDQKDEYELLCLDGSRQPVDNYKTCNWARVAAHAVVARDDNKVEDIWSFLSKAQSDFGVDTKSDFHLFGPPGKKDPVLKDLLFKDSAIMLKRVPSLMDSQLYLGFEYYSAIQSMRKDQLTPSPRENRIQWCAVGKDEKSKCDRWSVVSNGDVECTVVDETKDCIIKIMKGEADAVALDGGLVYTAGVCGLVPVMAERYDDESQCSKTDERPASYFAVAVARKDSNVNWNNLKGKKSCHTAVGRTAGWVIPMGLIHNRTGTCNFDEYFSEGCAPGSPPNSRLCQLCQGSGGIPPEKCVASSHEKYFGYTGALRCLVEKGDVAFIQHSTVEENTGGKNKADWAKNLQMDDFELLCTDGRRANVMDYRECNLAEVPTHAVVVRPEKANKIRDLLERQEKRFGVNGSEKSKFMMFESQNKDLLFKDLTKCLFKVREGTTYKEFLGDKFYTVISSLKTCNPSDILQMCSFLEGK
Turning to B1, the equilibrium dissociation constant (Kd) was ~100 nM.
